B1: N-acetylgalactosamine-6-sulfatase (protein, listed as Homo sapiens)
chain: APQPPNILLLLMDDMGWGDLGVYGEPSRETPNLDRMAAEGLLFPNFYSANPLCSPSRAALLTGRLPIRNGFYTTNAHARNAYTPQEIVGGIPDSEQLLPELLKKAGYVSKIVGKWHLGHRPQFHPLKHGFDEWFGSPNCHFGPYDNKARPNIPVYRDWEMVGRYYEEFPINLKTGEANLTQIYLQEALDFIKRQARHHPFFLYWAVDATHAPVYASKPFLGTSQRGRYGDAVREIDDSIGKILELLQDLHVADNTFVFFTSDNGAALISAPEQGGSNGPFLCGKQTTFEGGMREPALAWWPGHVTAGQVSHQLGSIMDLFTTSLALAGLTPPSDRAIDGLNLLPTLLQGRLMDRPIFYYRGDTLMAATLGQHKAHFWTWTNSWENFRQGIDFCPGQNVSGVTTHNLEDHTKLPLIFHLGRDPGERFPLSFASAEYQEALSRITSVVQQHQEALVPAQPQLNVCNWAVMNWAPPGCEKLGKCLTPPESIPKKCLWSH
notes: recombinant human GALNS produced in CHO cells, used for ERT and oral tolerance

How the values were obtained:
[1] = system: splenocytes; assay: Splenocyte proliferation after in vitro stimulation with peptides or GALNS (Examples 2, 4); type: cell-based, mouse; settings: for proliferation of splenocytes relative to age of the animal and length of treatment: MKC mice, weeks of infusion
Procedure: (§1) Mice (MKC) genetically engineered not to express GALNS were used in these examples. […] 200 μl of the emulsion were administered as a subcutaneous injection. […] Control mice (n=2) were immunized with PBS emulsified in CFA and IFA respectively (Chung et al. (2005) J. Leukoc Biol. 77(6):906-13)). […] A control group (n=5) received PBS (Tomatsu et al. (2008) Hum Mol Genet. 15; 17(6):815-24). […]
Ten days after the last immunization or the last infusion, the mice were euthanized and the spleen was aseptically removed. […] The suspension was centrifuged at 1000 rpm […]. The red blood cells were lysed using a hypotonic lysis buffer (Sigma® R7757). […] Cells were pulsed with 1 JpCi of [3H]thymidine for the last 18 h of incubation. [3H]thymidine incorporation was measured by […] (Trilux Microbeta Counter). The Stimulation Index (SI) was calculated as the mean value of the three wells for each condition divided by the mean value of the unstimulated cells (Mirano-Bascos (2010) J Virol. 84(7):3303-11).

[2] = system: splenocytes; assay: Cytokine production by splenocytes after in vitro stimulation (Example 3); type: cell-based, mouse; settings: splenocytes of MKC mice treated by ERT with GALNS; culture supernatant
Procedure: as §1
The production of cytokines after peptide stimulation was evaluated as intracellular staining (by flow cytometry) and secreted cytokines (by LUMINEX). […] The cells were treated with 1 μl of a protein transport inhibitor BD GolgiPlug™ during 5 h at 37° C., saturated humidity and 5% CO2. The suspension of cells was centrifuged at 1000 rpm during 10 minutes. The supernatants were collected by further analysis with LUMINEX. The Fc receptors were blocked with 1 μl of α-mouse CD16/32 (e-Bioscience) during 15 min at 4° C. After washing, the cells were stained with PE-Cy7-labeled anti-mouse CD4 and Alexa700-labeled anti-mouse CD8 antibodies during 30 min at 4° C. After two washes, cells were permeabilized with a BD fixation/permeabilization solution during 20 min at 4° C. Cells were washed two times and stained with a cocktail of antibodies for intracellular staining (PE-labeled anti-mouse IL-4, APC-labeled anti-mouse IL-5 and FITC-labeled anti-mouse IFN-γ). After two washes, cells were analyzed by flow cytometry. Secreted cytokines (IL-4, IL-5, IL-13, IL-17 and IFN-γ) in the collected supernatants were detected by using a bead immunoassay kit which allows the measurement of multiple proteins simultaneously (LUMINEX technology, using a Millipore Milliplex™ kit).

[3] = system: Morquio A mice and WT mice; assay: Plasma IgG anti-GALNS by indirect ELISA in mice treated by ERT (Example 8); type: in vivo, mouse; settings: 16 i.v. infusions of GALNS
Procedure: Morquio A mouse models: a). […] 14(22): p. 3321-35).c). Missense mutation mice (Galnstm (C76S) SLU C2) (Tomatsu et al. (2007) Mol Genet Metab., 91(3): p. 251-8), and wild-type C57BL6 mice were treated by ERT. […] A control group received PBS.
An indirect ELISA technique was used to detect plasma IgG antibodies against GALNS in treated and untreated mice. […] The plates were blocked with 3% casein in PBS during 1 h at room temperature in a wet chamber. After two washes, first with TTBS (10 mM Tris, 150 mM NaCl, 0.05% Tween 20, pH 7.5), and then with TBS (10 mM Tris, 150 mM NaCl, 0.05%, pH 7.5), […] of mice plasma samples diluted (1:1,000) in TTBS were added to the plate and incubated 2 h at 37° C. in a wet chamber. Four washes with TTBS were performed. 100 μl of anti-mouse IgG-Peroxidase (Sigma) 1:5,000 dilution in TTBS were applied. After three washes with TTBS, followed by one wash with TBS, the experiment was developed with the substrate TMB (3,3′,5,5′-Tetramethylbenzidine, Sigma). The enzymatic reaction was stopped with IN HCl solution and the absorbance was measured at 450 nm in a microplate reader Multiskan® EL800 (Bio-Tek Instruments). Plasma concentrations of IgG antibodies anti-GALNS were derived by extrapolation of the absorbance values from a calibration curve using a mAb anti-GALNS.

Molecule	proliferation of splenocytes relative to age of the animal and length of treatment [1]	splenocyte proliferation response ([1]; splenocytes of MKC mice treated by ERT with GALNS, in vitro peptide stimulation)	secretion of cytokines IL-5 and IFN-γ [2]	humoral response, IgG anti-GALNS in plasma ([3]; C2 mice)	humoral response, IgG anti-GALNS in plasma ([3]; MKC mice)	humoral response, IgG anti-GALNS in plasma ([3]; MTol mice)	humoral response, IgG anti-GALNS in plasma ([3]; WT mice)
QQHQEALVPAQPQLNVTNWA (listed as Homo sapiens) [Peptide I10]	highest response at 16 weeks	strong response	strong response	–	–	–	–
B1	highest response at 16 weeks	–	–	heterogeneous humoral response	stronger and more homogeneous response	lowest levels of response	heterogeneous humoral response

— US11529397B2, “Method of treating mucopolysaccharidosis type IVA” (Saint Louis University, priority 2018, dated 2022)
